These results are taken from the DeepSol protein solubility set.

The nature of the data set: soluble on expression in E. coli; label from the status in PepcDB or PDB records.
As for “MSLTIFTKERKLLLAVESSCDETSVAVIEDGDKILSNIVASQIKSHQRFGGVVPEVASRHHVEQVTICIEEALTEAKVTPEELSGVAVTYGPGLVGALLIGLSAAKAFAWAHQLPLIPVNHMAGHIYAARFVAPLEFPLMALLVSGGHTELVYMKEDGSFEIVGETRDDAAGEAYDKVGRVLGLPYPSGKEIDALAHEGTDTYQFPRAMLKEDNYDFSFSGLKSAFINTVHNAEQRGEALSTKDLAASFQASVVEVLVTKTIRACQEYPVKQLLIAGGVAANQGLREAMRHAISEQLPAVTLLIPPLKLCGDNAAMIGAAAFIEAEKNHFASYNLNAEPGVSFMTISEEGEGHHHHHH”, the “soluble on expression in E. coli” value is given as “soluble”.
Take “MGSDKIHHHHHHMSDIDFAKKMSFQRHFSRPKTAESEYAIVRQFESDRGRIINSAAIRRLQQKTQVFPLERNAAVRSRLTHSMEVQQVGRYIAKEILHRLQADERLASLGLADRETPFESLVEMACLMHDIGNPPFGHFGESAINQWFRKLLDSHYLDNESPERVDDCKVPTLRMQQDGLDDLRGQIRQDLSHFEGNAQAIRLVHTLLKLNLTYGQVACILKYTRPAYWHGELPADYNYLMKKPGYYLSEEAFVAKLREELDMGEFHRHPLSYIMEAADDVSYCIADLEDAVEKDILTIEELYDRLRENWGTGAEKDIFAKTIERAYKERERFQWRSHDDQFFMNLRVYTVGQMVPHAALRFIDNLPEIYTGSFNQALLEDDSPQNRLLGIFKHVALKHVFNHHEVEQLELQGDRVIRGLLDIYSPLLDMPYQDFSQLVSADTHKRYPIETRLYHKLSSKHCLAYREAVTELDGVAEPERIIREYYYRARLIQDYISGMTDLYAYDEYRMLMAAD”: the “soluble on expression in E. coli” value is listed as “not soluble”.
Take “MQRYNSTYVVKRDGRKEDVHFDKITSRIQKLSYGLNMDFVDPVAVAIKVISGLYKGVTTVELDNLAAETAASMTTQHPEYALLAARIAVSNLHKKTNKVFSEVMKTLHEFHHPHTGKHAPMISDETWAIIEKNADKLNSAIVYDRDYSYTYFGFKTLERSYLLKINKEIVERPQQMLMRVSIGIHGDDITSAIETYNLMSERYMTHASPTLFNSGTCRPQMSSCFLLTMSEDSILGIYDTLKQCALISKSAGGIGLNVHKIRATGSVIAGTNGTSNGLIPMLRVYNNTARYVDQGGNKRPGAFAIYLEPWHADIFEFVSLRKNTGPEEERARDLFLALWIPDLFMKRVEKDQEWSLMCPCECPGLDDCWGEEFEALYAKYEAEGRVRKTVKARKLWEHIVSNQIETGLPYITYKDAANRKSNQQNLGTIKCSNLCTEIIEYSAPDEIAVCNLASIALNRYVTPEKKFDFVKLAEVTKVITRNLNKIIDVNYYPVEEARNSNMRHRPIGLGVQGLADCFMLMRYPFTSAEARDLNKRIFETIYYAALEASCELAELNGPYSTYEGSPVSKGQLQFDMWGVTPTDQCDWATLRKKIAKHGIRNSLLMAPMPTASTAQILGNNESIEPYTSNIYSRRVLSGDFQIVNPHMLKDLVERGLWTDEMKNRLIANNGSIQNIDGIPSDIKELYRTVWEISQKDIIEMAADRGAYIDQSQSLNIHMAKPSYAGITSMHFYGWKKGLKTGMYYLRTKPAVNAVQFTVDKNALKTNQQAETPATVAESQDEGCLMCSG”: the “soluble on expression in E. coli” value is “not soluble”.
As for “MLSNQLHFAKPTARTPLVVLVHGLLGSGADWQPVLSHLARTQCAALTLDLPGHGTNPERHCDNFAEAVEMIEQTVQAHVTSEVPVILVGYSLGGRLIMHGLAQGAFSRLNLRGAIIEGGHFGLQENEEKAARWQHDQQWAQRFSQQPIEHVLSDWYQQAVFSSLNHEQRQTLIAQRSANLGSSVAHMLLATSLAKQPYLLPALQALKLPIHYVCGEQDSKFQQLAESSGLSYSQVAQAGHNVHHEQPQAFAKIVQAMIHSIID”, the “soluble on expression in E. coli” value is given as “soluble”.
Take “SLSTKNHFIFPTYVQMYPYSKDRPFLKQVREKLRYYGYKWLYQKQCSQLVDFLNTETQWQSLFTQDYYRTNTILTTFCDKRFSASERLTAITENLRLAEEKMGRSLCQQLLDQQHIVLTQLTEDLRLSLSINHIDPFEGYFSINIRNQNNERVYDSSFTFLSPNKLLIASIQGPSSDNAQELVKQATKALHGMRPMFMLVNGFKMLAEKWQCELVGIPHKAQGKYRLSARSKILFNYDEFWQENQGEYRHNYWQLPLHIERKQLEDIASKKRSMYRKRYEMLDQMALDIQQL”: the “soluble on expression in E. coli” value was “not soluble”.
With “MATNRSRRLRKKLCVDEFQELGFELNFHYKEGVDADAVNAFMLRFIDQAIEANELTYGGCDEFGFVCLARRGSVNEEQRALIEAWLKQQPELASVEVGALVDAWYPEQPVLPKL”, the “soluble on expression in E. coli” value is reported as “not soluble”.
To “MKIAVVAANGKAGQLITKEAVERSLDVTAIVRSENKTVAHQVIQKDLFDLTKEDIAPFDVIVDAFGQMNKDKLNEHSQSLEHLSNLVSDSQKRLIIIGGAGSLYVDKAHTERLIDSPDMPEEVKPISMAQVKTFEEIKERDDVQWTFVCPAPDFQFDGEKTGAYKVSDDEVIGTHVSYADFAKAIVDEAMNPEHIQSRFAVFAKLEHHHHHH” belongs “soluble”; to “GYSNAGLVNNLAGKLIANYWLDKVYSKEEGYAHRNGDVHIHDLDCLTGYCAGWSLRSLLNEGFNGVRGRVESRAPKHLREALGQMANFLGILQSEWAGAQAFSSFDTYLAPYVFRDQLEFKEIKKAIKSFVYNLNVPARWGQSPFTNVTIDWTVPADLKDQIPTRNDRHLFEDIQEDALLVQEAQKRGASSLLSMTYKYFQAEMNLINRAFYEVMTEGDKTGQPFTFPIPTVNITEDFDWHGENTDLLFENTAKIGSSYFQNFIGSQYIRNEKGELVENPEAYKPNAVRSMCCRLQLDLRELLKRGGGLFGSAEMTGSIGVVTLNMARLGYRFRGDREGLMAELTKLMDLSKSTLEKKRQAVTELFHRGLYPYTKRYLPGFNNHFSTIGVNGINEMIRNFTNDQDNISSPSGMAFATEILEFMRERIRSYQEETGNLYNLEATPAEGTTYRFAKEDKKRYPQIIQAGMEENVYYTNSSQLPANFTDDPFEALTLQDELQCKYTGGTVLHLYMREKISSAEACRKLVKTVITSYKLPYITITPVFSVCPKHGYLRGEHEYCPLCDEEALLEIEQSQCC”, “not soluble”.
On to “NTDYYGLDYALSFNQVEIEEKRIVIAGSGGIARTVIRYMLDHGAHRVDVLTRNAQNARRNLDIPGIGLHENIDEDYDIYVNCTPLGTLGDGDPFSTVDFRSGRTGIDLVYNPPDTPFLKRMRNAGGRTVSGLDVFIGQGLRTLELVFGIRPDSIFREYAVEALNEIR”, for which the “soluble on expression in E. coli” value is listed as “not soluble”.
In the case of “NPNPISIPIDLSQAGSVVEKEVKIEESWSYHLILQFAVHDRKEDGGLDGKRVWKFLGFNSYDPRDGKQVGYVDYRLAKSELGDLIDETYDCDGTVVPIKITIHQINQDNTKKLIADNLYMTKGNGSGAYTRDITTISLDKGKYIFRIENIEAFSEMIGRKVDFTIYINKRDK”, the “soluble on expression in E. coli” value is recorded as “soluble”.
Take “MKFPGQRKSKHYFPVHARDPLVIQAQENKKMSRTHIIGIDQTLVDIEAKVDSDLIERYGLSKGHSLVIDDHAAEALYNELKEQRLITNEYAGGTIGNTLHNYSVLADDRSTLLGVMSQDIKIGSYGYRYLCNTSSRMDLNYLQGVDGAIGRCFALITEDGERTFAISEGQMNQLRPDSIPEKIFASASALVITAYLVRCKEGDPMPEATMRAIEYAKKYDVPVVLTLGTKFVIQDDPKFWQEFLRDHVTVVAMNEDEALALTGESDPLAASDKALDWVDLVLCTAGPVGLFMAGYTEDSAKRETSLPLLPGSVPEFNRYEFSRPARKESCINPIRVYSHISPYMGGPEKIKNTNGAGDAALSALLHDMAANKYHKENVPNSSKHQHEFLTYSSFSQVCKYSNRASYEVLAQHSPRLSRGLPEREDSLEEAYWER”: the “soluble on expression in E. coli” value is reported as “not soluble”.
In the case of “MYEGEIAIGPVHSTMLEPHRLRLFIEDEIVKDAELTIGVNHRGVERLMEGLPVEKACILCEKICGICSHIHLWSAARVAEIGCNIEVPERANHIRIIVEELERLHSHTLLFGHAFEILGHETMSMRCFMLREPIMQVFFEISGSRVHYSCPIIGGIRPRCNISETQISHIHDKISQYEEGLTKFIERMLNDPMIISRVKDVGVMDRKTAAKFHAVGPTARGSNVKSDMRKWGWVPEYDPYDFDEILFDSGDVFARLAVRFYECLESVKIIRQALDALKDTSDKRIYNPNYELNEFKPINCYTEAQRGEQYYSYGLDDEGLVRQAKIRTPTATNLGAMEDIVKGYHVSDAELIIASCDPCFTCTDRLMVLKEPFKK”, the “soluble on expression in E. coli” value is given as “not soluble”.
“MRFQYQALLNEHQSQLDRFSSHIVATLDKYAHIPHLISKDKELVDALLSAQNSAQIDITNRYLEQVNEVIQAADTYLIDRFGNTIASSNWNLDRSFIGRNFAWRPYFYLSIAGQKSQYFALGSTSGQRGYYYAYPVIYAAEILGVIVVKMDLSAIEQGWQNKSSYFVATDDHQVVFMSSQPAWLFHSVADLSPAQLNDIRQSQQYLDSPIPSLGWQGDLQAEQSEWRKPEKHWLQDDYIVSSRPLPELALTIRVLSPKIE”: the “soluble on expression in E. coli” value is listed as “soluble”.
With “GSQGHDTVQPNFQQDKFLGRWYSAGLASNSSWFREKKAVLYMAKTVVAPSTEGGLNLTSTFLRKNQCETKIMVLQPAGAPGHYTYSSPHSGSIHSVSVVEANYDEYALLFSRGTKGPGQDFRMATLYSRTQTLKDELKEKFTTFSKAQGLTEEDIVFLPQPDKCIQE”, the “soluble on expression in E. coli” value is listed as “soluble”.
For the sequence “QTVLKPKVYVRARPKDMNGQGALLSGSVVDIGSGAIENRGGLIAGREALILNAQNIKNLQGDLQGKNIFAAAGSDITNTGSIGAEN”, the “soluble on expression in E. coli” value is on record as “not soluble”.
Turning to “MGSDKIHHHHHHMNMAQVAVALAKLAGIRKALDLALNDDHKKAGRLPIQNFLIEEVGRYFTGAATQLSILKKELPDLFGDFVEMPVEPKTEMAKTSTEGAAQYRYARSQLEVLARDIDQIFELRANSELAPPLIAAATTRRVFISHGRAPDWREVQAYVEKDIGLPTLELAQEPNQGRTILAKLMEASGQCDSAVIVMTGDDLDAAGQARARENVIHEIGFFQGKYGLGRVCLLHEEGVSIPSNIHGLVYTPFPKGMVSACFGVLTRELKAFY”, the “soluble on expression in E. coli” value was “not soluble”.
To “MGSSHHHHHHSSASMTGGQQMGRTLYDDDDKDRWGSELETGRQKARGAATRARQKQRASLETMDKAVQRFRLQNPDLDSEALLTLPLLQLVQKLQSGELSPEAVFFTYLGKAWEVNKGTNCVTSYLTDCETQLSQAPRQGLLYGVPVSLKECFSYKGHDSTLGLSLNEGMPSESDCVVVQVLKLQGAVPFVHTNVPQSMFSYDCSNPLFGQTMNPWKSSKSPGGSSGGEGALIGSGGSPLGLGTDIGGSIRFPSAFCGICGLKPTGNRLSKSGLKGCVYGQTAVQLSLGPMARDVESLALCLKALLCEHLFTLDPTVPPLPFREEVYRSSRPLRVGYYETDNYTMPSPAMRRALIETKQRLEAAGHTLIPFLPNNIPYALEVLSTGGLFSDGGRSFLQNFKGDFVDPCLGDLILILRLPSWFKRLLSLLLKPLFPRLAAFLNNMRPRSAEKLWKLQHEIEMYRQSVIAQWKAMNLDVLLTPMLGPALDLNTPGRATGAVSYTMLYNCLDFPAGVVPVTTVTAEDDAQMELYKGYFGDIWDIILKKAMKNSVGLPVAVQCVALPWQEELCLRFMREVEQLMTPQKQPS” belongs “soluble”; to “MGSDKIHHHHHHAQLSDNGYANVDWQFNAPLKNHFADKASGWGMNFEGGYFVTPNLGLGLFMNYSSNHEYFPRATFPVGEGTVNTDQQHTIFQLPFGAAARYQMNRGGAWQPYFGVKLGANYAKVRSNYNMFETRDNTWGFYVSPEIGLNVYPWAYGPGLHIAVYYSYATNKANVLTYNVDKLNNFGFRVGLAF”, “not soluble”.
